PMC3813961 (Biochemistry, 2013)
Read-outs that look alike come from different tables or passages of the source.

Key:
[1] = molecular target: EL222 L120K variant (Erythrobacter litoralis HTCC2594); experiment: SEC-MALS
[2] = molecular target: EL222 S137Y variant (Erythrobacter litoralis HTCC2594); experiment: SEC-MALS
[3] = molecular target: EL222 V41I:L52I:A79Q:V121I variant (AQTrip) (Erythrobacter litoralis HTCC2594); experiment: SEC-MALS
[4] = molecular target: EL222 V41I:L52I:A79Q:V121I variant (AQTrip) (Erythrobacter litoralis HTCC2594); experiment: SEC-MALS; remark: listed apart in the source
[5] = molecular target: EL222 V41I:L52I:A79Q:V121I variant (AQTrip) (Erythrobacter litoralis HTCC2594); experiment: SEC-MALS; remark: listed apart in the source
native gel or EMSA = molecular target: the molecule itself; experiment: native gel or EMSA

## EL222 L120K variant (natural protein)
[1]
  stoichiometry N: 2

## EL222 S137Y variant (natural protein)
[2]
  stoichiometry N: 2

## EL222 V41I:L52I:A79Q:V121I variant (AQTrip) (natural protein)
[3]
  stoichiometry N: 2
[4]
  stoichiometry N: 4
[5]
  stoichiometry N: 2

B1: His6-Gβ1-tagged wild-type EL222 (natural protein, Erythrobacter litoralis HTCC2594, UniProt Q2NB98 1-225, looked up)
chain: MLDMGQDRPIDGSGAPGADDTRVEVQPPAQWVLDLIEASPIASVVSDPRLADNPLIAINQAFTDLTGYSEEECVGRNCRFLAGSGTEPWLTDKIRQGVREHKPVLVEILNYKKDGTPFRNAVLVAPIYDDDDELLYFLGSQVEVDDDQPNMGMARRERAAEMLKTLSPRQLEVTTLVASGLRNKEVAARLGLSEKTVKMHRGLVMEKLNLKTSADLVRIAVEAGI
Native gel or EMSA
  stoichiometry N: 2
